Source: the supplement of paper PMC9170038

System: MS2 coat protein
Assay: apparent KD of MS2 coat protein; designed switch direction (-1 OFF switch, 1 ON switch): 1; higher = weaker reporter binding
In short: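 Designed RNA switches were transcribed on Illumina chips by stalled E. coli RNA polymerase and titrated with SNAP-549-labelled MS2 coat protein from 0.7 or 1.5 nM, doubling to 3 µM. Step length ran from 0.8–1.5 h at the lowest concentration to 10–20 min at the highest. The apparent KD is the median over clusters for each design, from curve-fitted normalised cluster fluorescence.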

[1] = input ligand: microRNA oligo, concentration not stated
[2] = Eterna round: R95, input ligand: microRNA oligo, concentration not stated
[3] = Eterna round: R95, input ligand: FMN 200 uM
[4] = Eterna round: R95, input ligand: none

Sequence | apparent KD of MS2 coat protein (input ligand: FMN 200 uM) | apparent KD of MS2 coat protein [1] | apparent KD of MS2 coat protein (input ligand: none) | apparent KD of MS2 coat protein [2] | apparent KD of MS2 coat protein [3] | apparent KD of MS2 coat protein [4]
AGGCUCAGACGAGGAUAUGGUCAUGGCGCUUCGGCGCAUACAUGAGGAUCACCCAUGUAGGGUGAUCAGAAGGUGUCUGAGCCA [SSNG2/9-B1] (Eterna round: R96, puzzle: Same State NG 2) | 171 nM | 720 nM | 892 nM | – | – | –
CCGAUGUGGGUACAGGAUAUGUGGGCCUCCACAUGAGGAUCACCCAUGUCGGAGGCAAAGCGGCUACAGAAGGGUGCGAGCUCGA [Xeanza] (puzzle: Same State 2) | – | – | – | 9.28 nM | – | –
UCUUGGUUUUUGCUCGUUUUUUGUGUUGAACAUGAGGAUCACCCAUGUAUUGUACGAUCCAAUUUAAUAAUGGUCCG [JMF 60] (puzzle: Sensor for hsa-mir-208a) | – | – | – | 33.6 nM | 42.6 nM | 50.2 nM
GUAAAACAUGAGGAUCACCCAUGUAAUAAUAUGGGAGGAUAUCAGAUUUAAUUUAAUUUAUGAGAAGGCCUAAAUU [Mat - Same State 1 - Mod of Eli - D62] (puzzle: Same State 1) | – | – | – | 488 nM | 43.4 nM | 596 nM
UAUAAACAUGAGGAUCACCCAUGUAAUAAUAUGGGAGGAUAUCAGAUUUAAUUUAAUUUAUGAGAAGGCCUAAUAU [Mat - Same State 1 - Mod of Eli - D66] (puzzle: Same State 1) | – | – | – | 491 nM | 34.3 nM | 825 nM
ACAUGAGGAUCACCCAUGUCGCUGGUAUCGGAUACGUAUUACGAGGAUAUGCCGAGGAGUUCCGAGUAGAAGGUGUAAUACAUG [Eternabot solution 40] (Eterna round: R96, puzzle: Same State NG 3) | 178 nM | 90.3 nM | 102 nM | – | – | –
GUAGGACAUGAGGAUCACCCAUGUGGAGAGGAACGAGGAUAUGUGAGAGGAGUGCAGAGGACAGAAGGCGUGGAGG [JR_SS1_Sub027] (puzzle: Same State 1) | – | – | – | 31.1 nM | 42.6 nM | 62.1 nM
UGAAUAGUGAUAGGAUAUACAUGAGGAAUCCUCGUAGAAGGAUCAUAACAUGAGGAUCACCCAUGUAGCGCUCAGAAGAGCGCA [Mat - Same State NG 1 - JL mod - D54] (Eterna round: R96, puzzle: Same State NG 1) | 31.5 nM | 37.1 nM | 81.3 nM | – | – | –
UGAGCCGGCACUGAGGAUAUUCAUAAUAAAACAUGAGGAUCACCCAUGUAGGCCAGAAGGCCUUGGGAGAAGGCAGGUCGGCUCA [Mat - Same State 2 - Mod of UCT - D71] (Eterna round: R96, puzzle: Same State 2) | 15.7 nM | 147 nM | 191 nM | – | – | –
CGUCCGGCCUGAGCUGGACGGAAGCUUGUACAUGAGGAUCACCCAUGUUCAUGUGCAGGCUUUUUGCUCGUCUUGUG [salish99_mir208a_modof_jandersonlee] (puzzle: Sensor for hsa-mir-208a) | – | – | – | 18.8 nM | 19.8 nM | 23.4 nM
GGAAUAUGAUGUUACAUGAGGAUCACCCAUGUAGUAAUAACUAAGGAUAUUUGAAAGGGAGGAGAAGAGAAGGUAGGAUCAUAA [AK SSNG3-V2-11] (Eterna round: R96, puzzle: Same State NG 3) | 61 nM | 41.3 nM | 63.8 nM | – | – | –
AAGACAUUUGCUUAGGAUAUACAGGGCUCCACAUGAGGAUCACCCAUGUUAAAAGAGGAGUAAAUGUAGAAGGAAGCCUCCAAUA [Zazaes] (puzzle: Same State 2) | – | – | – | 59.8 nM | 19.1 nM | 66.3 nM
GCACUCCUAGGAGCUGCGACAUGAGGAUCACCCAUGUAAUCACAGGAUAUGCAAUUCUGAAUUUUGCAGAAGGGUGAUAGGAAA [Zausorbi] (Eterna round: R96, puzzle: Same State NG 3) | 413 nM | 270 nM | 263 nM | – | – | –
CUUUUUAGUGCAGGAUAUGAUCAACAUGAGGAUCACCCAUGUGGCGUUGUGAGUAGGGAGAGUGAUCAGAAGGGCGUCUCCUCG [SS-NG2-LRO10] (Eterna round: R96, puzzle: Same State NG 2) | 40.7 nM | 55.7 nM | 39.2 nM | – | – | –
GGGAGAGGCGCAGGAUAUGGUGAGGAUUACCCACUAGAAGGGUGCACAUGAGAAUCGAACAUGAGGAUCACCCAUGUUCUGAGC (Eterna round: R96, puzzle: Same State NG 1) | 189 nM | 187 nM | 230 nM | – | – | –
AGAGAACAUGAGGAUCACCCAUGUGAGAGGGAUGUAGGAUAUGUAAGGAAGAAAGAAGGAACAGAAGGACAAAGAG [JR_SS!_Sub066] (puzzle: Same State 1) | – | – | – | 78.5 nM | 50.5 nM | 70.7 nM
CCGGUUUAUGGAGGAUAUGGAGCCUUAUUGGCUCCAGAAGGCUAAACAUGAGGAUCACCCAUGUUACCGGCGGUCAAUAGACCG [Eli NG1ss - 60] (Eterna round: R96, puzzle: Same State NG 1) | 11.8 nM | 20.5 nM | 23.1 nM | – | – | –
UUGAUUAACGUAGGAUAUCGACCUACAUGAGGAUCACCCAUGUCUUUGUAUAGUUUUUUUUGUUACGAGAAGGACGUUAUGUAU [JR_SSNG2_Sub067] (Eterna round: R96, puzzle: Same State NG 2) | 78.6 nM | 100 nM | 106 nM | – | – | –
UAAAAACAUGAGGAUCACCCAUGUGAAAAUAUGGGAGGAUAUACAAAGACGAGAGUCAAAGUAGAAGGCCUAAAAU [Mat - Same State 1 - Eli mod - D88] (Eterna round: R96, puzzle: Same State 1) | 21.9 nM | 68.3 nM | 86.6 nM | – | – | –
GAAAAACAUGAGGAUCACCCAUGUGUAAACAAGGGAGGAUAUACAAAGACGUAAGUCAAAGUAGAAGGCCUAAAAG [Garnet 38] (Eterna round: R96, puzzle: Same State 1) | 19.6 nM | 54.3 nM | 71.8 nM | – | – | –
AGAGCCGGCACUGAGGAUAUUCAUAAUAAAACAUGAGGAUCACCCAUGUAGGCCAGAAGGCCUUGGGAGAAGGCAGGUCGGCUCU [Mat - Same State 2 - Mod of UCT - D69] (puzzle: Same State 2) | – | – | – | 168 nM | 17.7 nM | 220 nM
GCCCAUAGUAUAUGGGUACAAGCUUUUUGACAUGAGGAUCACCCAUGUACUCGUCUUAUGUGCAGUCCGUAGACUGC [JL-shm-2.18 Brourd mod] (puzzle: Sensor for hsa-mir-208a) | – | – | – | 15.3 nM | 61.9 nM | 66.6 nM
UUUUUUAUCGUAGGAUAUAGGUUGAAUAAUAGACUAGAAGGACGUCACAUGAGGAUCACCCAUGUUUUUUAAGUGUCGAAGUGU [JR_SSNG1_Sub040] (Eterna round: R96, puzzle: Same State NG 1) | 31.3 nM | 23 nM | 29.4 nM | – | – | –
